Holding throughout (test): other fluorescence titration; 5-IAF-labelled Ypd1-T12C (30 pmol in 1.9 mL) titrated with Sln1-R1, 10 nM to 6 uM; 23.0 °C; 20 mM Tris pH 8.0, 50 mM NaCl, 10 mM MgCl2; excitation 492 nm, emission 515 nm; quadratic fit; 'observed' Kd, three replicate titrations
What all share (settings): both partners purified

For assay [1], the target named is T1, Ypd1-T12C~F (fluorescein-labelled Ypd1-T12C) (S. cerevisiae, UniProt Q07688 3-167, T12C, 5-iodoacetamidofluorescein (5-IAF) on the cysteine introduced at position 12 (70-90% of the molecules labelled)).
T1 construct: Ypd1, histidine phosphotransfer (HPt) protein of Saccharomyces cerevisiae; YPD1 gene in pET21a(+), T12C; also called WT; 5-IAF labelled Ypd1
T1 sequence: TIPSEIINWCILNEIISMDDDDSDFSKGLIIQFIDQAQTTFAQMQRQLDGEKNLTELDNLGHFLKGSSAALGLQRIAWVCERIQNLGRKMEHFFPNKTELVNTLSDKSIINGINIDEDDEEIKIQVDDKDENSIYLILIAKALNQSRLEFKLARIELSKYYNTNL

In assay [2] the target is T2, Ypd1-T12C-G68V, fluorescein-labelled (S. cerevisiae, UniProt Q07688 3-167, T12C | G68V, 5-iodoacetamidofluorescein (5-IAF) on the cysteine introduced at position 12).
T2 construct: Ypd1, HPt protein of Saccharomyces cerevisiae; double mutant made on pET-Ypd1-T12C; also called Ypd1-G68V
T2 sequence: T1 sequence with G66V

The target of assay [3] is T3, Ypd1-T12C-G68L, fluorescein-labelled (S. cerevisiae, UniProt Q07688 3-167, T12C | G68L, 5-iodoacetamidofluorescein (5-IAF) on the cysteine introduced at position 12).
T3 construct: Ypd1, HPt protein of Saccharomyces cerevisiae; double mutant made on pET-Ypd1-T12C; also called Ypd1-G68L
T3 sequence: T1 sequence with G66L

Assay [4] addresses T4, Ypd1-T12C-G68E, fluorescein-labelled (S. cerevisiae, UniProt Q07688 3-167, T12C | G68E, 5-iodoacetamidofluorescein (5-IAF) on the cysteine introduced at position 12).
T4 construct: Ypd1, HPt protein of Saccharomyces cerevisiae; double mutant made on pET-Ypd1-T12C; also called Ypd1-G68E
T4 sequence: T1 sequence with G66E

Assay [5] deals with T5, Ypd1-T12C-G68Q, fluorescein-labelled (S. cerevisiae, UniProt Q07688 1-167, T12C | G68Q, 5-iodoacetamidofluorescein (5-IAF) on the cysteine introduced at position 12).
T5 construct: Ypd1, HPt protein of Saccharomyces cerevisiae; double mutant made on pET-Ypd1-T12C; PDB 6M7W is the single mutant Ypd1-G68Q (from pUC-Ypd1, without T12C); also called Ypd1-G68Q
T5 sequence: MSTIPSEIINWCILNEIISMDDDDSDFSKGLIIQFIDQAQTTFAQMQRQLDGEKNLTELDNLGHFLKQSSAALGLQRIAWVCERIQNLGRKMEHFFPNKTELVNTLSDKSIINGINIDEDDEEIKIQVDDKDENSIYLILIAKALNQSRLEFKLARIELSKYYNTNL

Residue numbers refer to the chain shown, from its start.

B1: Sln1-R1 (receiver domain of Sln1) (domain or fragment, S. cerevisiae)
chain: TSVKILVVEDNHVNQEVIKRMLNLEGIENIELACDGQEAFDKVKELTSKGENYNMIFMDVQMPKVDGLLSTKMIRRDLGYTSPIVALTAFADDSNIKECLESGMNGFLSKPIKRPKLKTILTEFCAAYQGKKNNK
notes: Receiver domain (R1) of the hybrid sensor histidine kinase Sln1 of Saccharomyces cerevisiae, in the vector pFJS16; neither is said here; also called receiver domain from Sln1
As a reminder, the Kd is a measure of binding affinity in units of concentration. Higher therefore signals weaker binding. Turning to B1, the Kd in assay [1] was 940 nM; in assay [2] it was 2900 nM; in assay [3] it was 1300 nM; in assay [4], 500 nM; in assay [5], 600 nM.
